Earlier results on one substance are cited in article PMC9569990 (International Journal of Molecular Sciences, 2022).

Series [1] deals with RAGE V domain (Homo sapiens) (UniProt Q15109). Particulars: cited from earlier work.
In another series the target is S100P (Homo sapiens) (UniProt P25815). Particulars: cited from earlier work.
Chain of S100P (Homo sapiens) (P25815 whole entry): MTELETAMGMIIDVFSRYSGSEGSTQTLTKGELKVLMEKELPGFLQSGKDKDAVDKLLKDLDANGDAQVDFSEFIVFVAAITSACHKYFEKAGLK

Chain of S100P (P25815 whole entry): as above
Chain of RAGE V domain (Homo sapiens) (Q15109 23-116): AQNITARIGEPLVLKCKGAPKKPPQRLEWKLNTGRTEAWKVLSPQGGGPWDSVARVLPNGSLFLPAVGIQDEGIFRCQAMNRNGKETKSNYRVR

Consider S100P (from UniProt P25815), for which the Kd in series [1] is 6 µM; with S100P (Homo sapiens), 0.064 µM.
